B1: Pistol ribozyme (parent)
chain: GGGUCGUUGUUCCAUAAUCGCGUGGAUAUGGCACGCAAGUUUCUACCGGGCACCGUAAAUGUCCGACUGGAGCCGUUCGGGCGGCUAUAAACAGACCUCAGGCCCGAAGCGUGGCGGCACCUGCCGCCGGUGGUAAAAAAGAUCGGAAGAGCACACGUCU

Variants of: B1
Test: aptazyme ON/OFF ratio, guanine; higher = stronger switching; co-transcriptional cleavage with and without guanine

| Variant | aptazyme ON/OFF ratio |
| --- | --- |
| GGGUCGGGCAGUUAUAAUCGCGUGGAUAUGGCACGCAAGUUUCUACCGGGCACCGUAAAUGUCCGACUGGAGCCGUUCGGGCGGCUAUAAACAGACCUCAGGCCCGAAGCGUGGCGGCACCUGCCGCCGGUGGUAAAAAAGAUCGGAAGAGCACACGUCU [U7G U8G G9C U10A U11G C12U C13U] | 1.05 |
| GGGUCGGGCAGUAAUAAUCGCGUGGAUAUGGCACGCAAGUUUCUACCGGGCACCGUAAAUGUCCGACUGGAGCCGUUCGGGCGGCUAUAAACAGACCUCAGGCCCGAAGCGUGGCGGCACCUGCCGCCGGUGGUAAAAAAGAUCGGAAGAGCACACGUCU [U7G U8G G9C U10A U11G C12U C13A] | 1.07 |
| GGGUCGGGCAGUGAUAAUCGCGUGGAUAUGGCACGCAAGUUUCUACCGGGCACCGUAAAUGUCCGACUGGAGCCGUUCGGGCGGCUAUAAACAGACCUCAGGCCCGAAGCGUGGCGGCACCUGCCGCCGGUGGUAAAAAAGAUCGGAAGAGCACACGUCU [U7G U8G G9C U10A U11G C12U C13G] | 1.04 |
| GGGUCGGGCACAUAUAAUCGCGUGGAUAUGGCACGCAAGUUUCUACCGGGCACCGUAAAUGUCCGACUGGAGCCGUUCGGGCGGCUAUAAACAGACCUCAGGCCCGAAGCGUGGCGGCACCUGCCGCCGGUGGUAAAAAAGAUCGGAAGAGCACACGUCU [U7G U8G G9C U10A U11C C12A C13U] | 1.04 |
| GGGUCGGGCACAAAUAAUCGCGUGGAUAUGGCACGCAAGUUUCUACCGGGCACCGUAAAUGUCCGACUGGAGCCGUUCGGGCGGCUAUAAACAGACCUCAGGCCCGAAGCGUGGCGGCACCUGCCGCCGGUGGUAAAAAAGAUCGGAAGAGCACACGUCU [U7G U8G G9C U10A U11C C12A C13A] | 1.07 |
| GGGUCGGGCACAGAUAAUCGCGUGGAUAUGGCACGCAAGUUUCUACCGGGCACCGUAAAUGUCCGACUGGAGCCGUUCGGGCGGCUAUAAACAGACCUCAGGCCCGAAGCGUGGCGGCACCUGCCGCCGGUGGUAAAAAAGAUCGGAAGAGCACACGUCU [U7G U8G G9C U10A U11C C12A C13G] | 1.06 |
| GGGUCGGGCAGGGAUAAUCGCGUGGAUAUGGCACGCAAGUUUCUACCGGGCACCGUAAAUGUCCGACUGGAGCCGUUCGGGCGGCUAUAAACAGACCUCAGGCCCGAAGCGUGGCGGCACCUGCCGCCGGUGGUAAAAAAGAUCGGAAGAGCACACGUCU [U7G U8G G9C U10A U11G C12G C13G] | 1.07 |
| GGGUCGGGCAGGUAUAAUCGCGUGGAUAUGGCACGCAAGUUUCUACCGGGCACCGUAAAUGUCCGACUGGAGCCGUUCGGGCGGCUAUAAACAGACCUCAGGCCCGAAGCGUGGCGGCACCUGCCGCCGGUGGUAAAAAAGAUCGGAAGAGCACACGUCU [U7G U8G G9C U10A U11G C12G C13U] | 1.06 |
| GGGUCGGGCAGGAAUAAUCGCGUGGAUAUGGCACGCAAGUUUCUACCGGGCACCGUAAAUGUCCGACUGGAGCCGUUCGGGCGGCUAUAAACAGACCUCAGGCCCGAAGCGUGGCGGCACCUGCCGCCGGUGGUAAAAAAGAUCGGAAGAGCACACGUCU [U7G U8G G9C U10A U11G C12G C13A] | 1.1 |
| GGGUCGGGCACCCAUAAUCGCGUGGAUAUGGCACGCAAGUUUCUACCGGGCACCGUAAAUGUCCGACUGGAGCCGUUCGGGCGGCUAUAAACAGACCUCAGGCCCGAAGCGUGGCGGCACCUGCCGCCGGUGGUAAAAAAGAUCGGAAGAGCACACGUCU [U7G U8G G9C U10A U11C] | 1.04 |
| GGGUCGGGCAGCCAUAAUCGCGUGGAUAUGGCACGCAAGUUUCUACCGGGCACCGUAAAUGUCCGACUGGAGCCGUUCGGGCGGCUAUAAACAGACCUCAGGCCCGAAGCGUGGCGGCACCUGCCGCCGGUGGUAAAAAAGAUCGGAAGAGCACACGUCU [U7G U8G G9C U10A U11G] | 1.11 |
| GGGUCGGGCACGGAUAAUCGCGUGGAUAUGGCACGCAAGUUUCUACCGGGCACCGUAAAUGUCCGACUGGAGCCGUUCGGGCGGCUAUAAACAGACCUCAGGCCCGAAGCGUGGCGGCACCUGCCGCCGGUGGUAAAAAAGAUCGGAAGAGCACACGUCU [U7G U8G G9C U10A U11C C12G C13G] | 1.05 |
| GGGUCGGGCACGAAUAAUCGCGUGGAUAUGGCACGCAAGUUUCUACCGGGCACCGUAAAUGUCCGACUGGAGCCGUUCGGGCGGCUAUAAACAGACCUCAGGCCCGAAGCGUGGCGGCACCUGCCGCCGGUGGUAAAAAAGAUCGGAAGAGCACACGUCU [U7G U8G G9C U10A U11C C12G C13A] | 1.06 |
| GGGUCGGGCACGUAUAAUCGCGUGGAUAUGGCACGCAAGUUUCUACCGGGCACCGUAAAUGUCCGACUGGAGCCGUUCGGGCGGCUAUAAACAGACCUCAGGCCCGAAGCGUGGCGGCACCUGCCGCCGGUGGUAAAAAAGAUCGGAAGAGCACACGUCU [U7G U8G G9C U10A U11C C12G C13U] | 1.06 |
| GGGUCGGGCCUACAUAAUCGCGUGGAUAUGGCACGCAAGUUUCUACCGGGCACCGUAAAUGUCCGACUGGAGCCGUUCGGGCGGCUAUAAACAGACCUCAGGCCCGAAGCGUGGCGGCACCUGCCGCCGGUGGUAAAAAAGAUCGGAAGAGCACACGUCU [U7G U8G G9C U10C C12A] | 1.33 |
| GGGUCGGGCACUAAUAAUCGCGUGGAUAUGGCACGCAAGUUUCUACCGGGCACCGUAAAUGUCCGACUGGAGCCGUUCGGGCGGCUAUAAACAGACCUCAGGCCCGAAGCGUGGCGGCACCUGCCGCCGGUGGUAAAAAAGAUCGGAAGAGCACACGUCU [U7G U8G G9C U10A U11C C12U C13A] | 1.06 |
| GGGUCGGGCACUUAUAAUCGCGUGGAUAUGGCACGCAAGUUUCUACCGGGCACCGUAAAUGUCCGACUGGAGCCGUUCGGGCGGCUAUAAACAGACCUCAGGCCCGAAGCGUGGCGGCACCUGCCGCCGGUGGUAAAAAAGAUCGGAAGAGCACACGUCU [U7G U8G G9C U10A U11C C12U C13U] | 1.04 |
| GGGUCGGGCACUGAUAAUCGCGUGGAUAUGGCACGCAAGUUUCUACCGGGCACCGUAAAUGUCCGACUGGAGCCGUUCGGGCGGCUAUAAACAGACCUCAGGCCCGAAGCGUGGCGGCACCUGCCGCCGGUGGUAAAAAAGAUCGGAAGAGCACACGUCU [U7G U8G G9C U10A U11C C12U C13G] | 1.19 |

| Variant | aptazyme ON/OFF ratio |
| --- | --- |
| GGGUCGGGCCUCCAUAAUCGCGUGGAUAUGGCACGCAAGUUUCUACCGGGCACCGUAAAUGUCCGACUGGAGCCGUUCGGGCGGCUAUAAACAGACCUCAGGCCCGAAGCGUGGCGGCACCUGCCGCCGGUGGUAAAAAAGAUCGGAAGAGCACACGUCU [U7G U8G G9C U10C] | 2.35 |
| GGGUCGGGCAGAGAUAAUCGCGUGGAUAUGGCACGCAAGUUUCUACCGGGCACCGUAAAUGUCCGACUGGAGCCGUUCGGGCGGCUAUAAACAGACCUCAGGCCCGAAGCGUGGCGGCACCUGCCGCCGGUGGUAAAAAAGAUCGGAAGAGCACACGUCU [U7G U8G G9C U10A U11G C12A C13G] | 1.12 |
| GGGUCGGGCAGAAAUAAUCGCGUGGAUAUGGCACGCAAGUUUCUACCGGGCACCGUAAAUGUCCGACUGGAGCCGUUCGGGCGGCUAUAAACAGACCUCAGGCCCGAAGCGUGGCGGCACCUGCCGCCGGUGGUAAAAAAGAUCGGAAGAGCACACGUCU [U7G U8G G9C U10A U11G C12A C13A] | 1.07 |
| GGGUCGGGCAGAUAUAAUCGCGUGGAUAUGGCACGCAAGUUUCUACCGGGCACCGUAAAUGUCCGACUGGAGCCGUUCGGGCGGCUAUAAACAGACCUCAGGCCCGAAGCGUGGCGGCACCUGCCGCCGGUGGUAAAAAAGAUCGGAAGAGCACACGUCU [U7G U8G G9C U10A U11G C12A C13U] | 1.05 |
| GGGUCGGGCAGCUAUAAUCGCGUGGAUAUGGCACGCAAGUUUCUACCGGGCACCGUAAAUGUCCGACUGGAGCCGUUCGGGCGGCUAUAAACAGACCUCAGGCCCGAAGCGUGGCGGCACCUGCCGCCGGUGGUAAAAAAGAUCGGAAGAGCACACGUCU [U7G U8G G9C U10A U11G C13U] | 1.04 |
| GGGUCGGGCAGCAAUAAUCGCGUGGAUAUGGCACGCAAGUUUCUACCGGGCACCGUAAAUGUCCGACUGGAGCCGUUCGGGCGGCUAUAAACAGACCUCAGGCCCGAAGCGUGGCGGCACCUGCCGCCGGUGGUAAAAAAGAUCGGAAGAGCACACGUCU [U7G U8G G9C U10A U11G C13A] | 1.08 |
| GGGUCGGGCAGCGAUAAUCGCGUGGAUAUGGCACGCAAGUUUCUACCGGGCACCGUAAAUGUCCGACUGGAGCCGUUCGGGCGGCUAUAAACAGACCUCAGGCCCGAAGCGUGGCGGCACCUGCCGCCGGUGGUAAAAAAGAUCGGAAGAGCACACGUCU [U7G U8G G9C U10A U11G C13G] | 1.03 |
| GGGUCGGGCAGUCAUAAUCGCGUGGAUAUGGCACGCAAGUUUCUACCGGGCACCGUAAAUGUCCGACUGGAGCCGUUCGGGCGGCUAUAAACAGACCUCAGGCCCGAAGCGUGGCGGCACCUGCCGCCGGUGGUAAAAAAGAUCGGAAGAGCACACGUCU [U7G U8G G9C U10A U11G C12U] | 1.12 |
| GGGUCGGGCAGGCAUAAUCGCGUGGAUAUGGCACGCAAGUUUCUACCGGGCACCGUAAAUGUCCGACUGGAGCCGUUCGGGCGGCUAUAAACAGACCUCAGGCCCGAAGCGUGGCGGCACCUGCCGCCGGUGGUAAAAAAGAUCGGAAGAGCACACGUCU [U7G U8G G9C U10A U11G C12G] | 1.08 |
| GGGUCGGGCAGACAUAAUCGCGUGGAUAUGGCACGCAAGUUUCUACCGGGCACCGUAAAUGUCCGACUGGAGCCGUUCGGGCGGCUAUAAACAGACCUCAGGCCCGAAGCGUGGCGGCACCUGCCGCCGGUGGUAAAAAAGAUCGGAAGAGCACACGUCU [U7G U8G G9C U10A U11G C12A] | 1.05 |
| GGGUCGGGCACGCAUAAUCGCGUGGAUAUGGCACGCAAGUUUCUACCGGGCACCGUAAAUGUCCGACUGGAGCCGUUCGGGCGGCUAUAAACAGACCUCAGGCCCGAAGCGUGGCGGCACCUGCCGCCGGUGGUAAAAAAGAUCGGAAGAGCACACGUCU [U7G U8G G9C U10A U11C C12G] | 1.11 |
| GGGUCGGGCACUCAUAAUCGCGUGGAUAUGGCACGCAAGUUUCUACCGGGCACCGUAAAUGUCCGACUGGAGCCGUUCGGGCGGCUAUAAACAGACCUCAGGCCCGAAGCGUGGCGGCACCUGCCGCCGGUGGUAAAAAAGAUCGGAAGAGCACACGUCU [U7G U8G G9C U10A U11C C12U] | 1.08 |
| GGGUCGGGCACACAUAAUCGCGUGGAUAUGGCACGCAAGUUUCUACCGGGCACCGUAAAUGUCCGACUGGAGCCGUUCGGGCGGCUAUAAACAGACCUCAGGCCCGAAGCGUGGCGGCACCUGCCGCCGGUGGUAAAAAAGAUCGGAAGAGCACACGUCU [U7G U8G G9C U10A U11C C12A] | 1.06 |
| GGGUCGGGCCUAAAUAAUCGCGUGGAUAUGGCACGCAAGUUUCUACCGGGCACCGUAAAUGUCCGACUGGAGCCGUUCGGGCGGCUAUAAACAGACCUCAGGCCCGAAGCGUGGCGGCACCUGCCGCCGGUGGUAAAAAAGAUCGGAAGAGCACACGUCU [U7G U8G G9C U10C C12A C13A] | 1.29 |
| GGGUCGGGCCUAGAUAAUCGCGUGGAUAUGGCACGCAAGUUUCUACCGGGCACCGUAAAUGUCCGACUGGAGCCGUUCGGGCGGCUAUAAACAGACCUCAGGCCCGAAGCGUGGCGGCACCUGCCGCCGGUGGUAAAAAAGAUCGGAAGAGCACACGUCU [U7G U8G G9C U10C C12A C13G] | 1.27 |
| GGGUCGGGCACCUAUAAUCGCGUGGAUAUGGCACGCAAGUUUCUACCGGGCACCGUAAAUGUCCGACUGGAGCCGUUCGGGCGGCUAUAAACAGACCUCAGGCCCGAAGCGUGGCGGCACCUGCCGCCGGUGGUAAAAAAGAUCGGAAGAGCACACGUCU [U7G U8G G9C U10A U11C C13U] | 1.07 |
| GGGUCGGGCACCGAUAAUCGCGUGGAUAUGGCACGCAAGUUUCUACCGGGCACCGUAAAUGUCCGACUGGAGCCGUUCGGGCGGCUAUAAACAGACCUCAGGCCCGAAGCGUGGCGGCACCUGCCGCCGGUGGUAAAAAAGAUCGGAAGAGCACACGUCU [U7G U8G G9C U10A U11C C13G] | 1.05 |
| GGGUCGGGCACCAAUAAUCGCGUGGAUAUGGCACGCAAGUUUCUACCGGGCACCGUAAAUGUCCGACUGGAGCCGUUCGGGCGGCUAUAAACAGACCUCAGGCCCGAAGCGUGGCGGCACCUGCCGCCGGUGGUAAAAAAGAUCGGAAGAGCACACGUCU [U7G U8G G9C U10A U11C C13A] | 1.07 |
